PMC9482650, “Quantitative fragmentomics allow affinity mapping of interactomes” (Nature Communications, 2022)

What was measured:
Experiment in all cases: holdup assay
Set-up in all cases: key: below the threshold = too weak to quantify, mostly under pKd 3.1 to 4
DLG1_3, Q12959 = target: DLG1_3, Q12959
GRID2IP_2, A4D2P6 = target: GRID2IP_2, A4D2P6
DFNB31_1, Q9P202 = target: T1, DFNB31_1, Q9P202
T1 sequence (Q9P202 135-233, limits assumed, looked up): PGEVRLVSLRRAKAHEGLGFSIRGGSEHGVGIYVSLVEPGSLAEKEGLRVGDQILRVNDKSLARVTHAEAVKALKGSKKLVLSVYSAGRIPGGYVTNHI

GRIP2_6, Q9C0E4 = target: GRIP2_6, Q9C0E4
GRIP2_6, Q9C0E4, sequence (Q9C0E4 648-740): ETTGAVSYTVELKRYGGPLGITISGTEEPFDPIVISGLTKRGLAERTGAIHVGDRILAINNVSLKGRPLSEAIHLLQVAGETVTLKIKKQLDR

IL16_1, Q14005 = target: IL16_1, Q14005
IL16_1, Q14005, sequence (Q14005 210-306): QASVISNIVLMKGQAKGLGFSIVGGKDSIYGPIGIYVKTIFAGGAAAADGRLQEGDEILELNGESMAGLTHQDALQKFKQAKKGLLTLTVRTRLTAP

APBA2_1, Q99767 = target: T2, APBA2_1, Q99767
T2 sequence (Q99767 563-664, limits assumed, looked up): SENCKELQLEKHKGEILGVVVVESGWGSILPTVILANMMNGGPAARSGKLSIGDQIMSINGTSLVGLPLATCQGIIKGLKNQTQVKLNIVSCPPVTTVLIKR

GORASP2, Q9H8Y8 = target: GORASP2, Q9H8Y8
FRMPD3, Q5JV73 = target: FRMPD3, Q5JV73
FRMPD3, Q5JV73, sequence (Q5JV73 12-100): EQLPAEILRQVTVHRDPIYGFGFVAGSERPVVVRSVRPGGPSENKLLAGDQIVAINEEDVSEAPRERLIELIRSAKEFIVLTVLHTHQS

MAGI2_3, Q86UL8 = target: MAGI2_3, Q86UL8
MAGI2_3, Q86UL8, sequence (Q86UL8 600-682): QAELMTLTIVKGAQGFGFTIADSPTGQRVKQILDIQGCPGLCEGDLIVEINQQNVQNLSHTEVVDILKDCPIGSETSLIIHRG

NHERF2_2, Q15599 = target: NHERF2_2, Q15599
NHERF2_2, Q15599, sequence (Q15599 142-238): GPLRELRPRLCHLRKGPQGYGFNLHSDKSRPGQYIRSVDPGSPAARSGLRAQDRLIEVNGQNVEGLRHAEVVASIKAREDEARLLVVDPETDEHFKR

LNX1_1, Q8TBB1 = target: LNX1_1, Q8TBB1
LNX1_1, Q8TBB1, sequence (Q8TBB1 261-371): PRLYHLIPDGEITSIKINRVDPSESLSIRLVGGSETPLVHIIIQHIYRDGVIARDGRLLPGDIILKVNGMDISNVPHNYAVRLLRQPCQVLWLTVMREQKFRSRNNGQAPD

NOS1, P29475 = target: NOS1, P29475
NOS1, P29475, sequence (P29475 9-101): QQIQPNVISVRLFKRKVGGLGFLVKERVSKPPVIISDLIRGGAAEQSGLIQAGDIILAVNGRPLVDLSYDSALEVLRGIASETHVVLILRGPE

DVL3, Q92997 = target: T3, DVL3, Q92997
T3 sequence (Q92997 244-331, limits assumed, looked up): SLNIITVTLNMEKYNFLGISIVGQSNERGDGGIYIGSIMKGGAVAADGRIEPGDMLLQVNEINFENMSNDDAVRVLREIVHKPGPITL

APBA1_1, Q02410 = target: T4, APBA1_1, Q02410; conditions: plain residues with an end cap or a label only (N-terminal biotin on a linker: ttds)
T4 sequence (Q02410 651-752, limits assumed, looked up): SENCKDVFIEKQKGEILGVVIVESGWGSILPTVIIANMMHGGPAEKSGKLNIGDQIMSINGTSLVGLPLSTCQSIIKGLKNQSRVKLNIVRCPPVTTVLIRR

HTRA3, P83110 = target: T5, HTRA3, P83110; conditions: plain residues with an end cap or a label only (N-terminal biotin on a linker: ttds)
T5 sequence (P83110 354-453, limits assumed, looked up): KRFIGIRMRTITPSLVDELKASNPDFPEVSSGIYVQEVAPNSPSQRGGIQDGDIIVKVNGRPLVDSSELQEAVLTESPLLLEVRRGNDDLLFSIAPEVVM

MPDZ_5, O75970 = target: T6, MPDZ_5, O75970; conditions: plain residues with an end cap or a label only (N-terminal biotin on a linker: ttds)
T6 sequence (O75970 695-796, limits assumed, looked up): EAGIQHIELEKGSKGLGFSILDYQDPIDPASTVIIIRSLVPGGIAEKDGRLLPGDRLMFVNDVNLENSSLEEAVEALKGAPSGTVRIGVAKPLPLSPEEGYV

GORASP1, Q9BQQ3 = conditions: plain residues with an end cap or a label only (N-terminal biotin on a linker: ttds)
GORASP1, Q9BQQ3, sequence (Q9BQQ3 1-208): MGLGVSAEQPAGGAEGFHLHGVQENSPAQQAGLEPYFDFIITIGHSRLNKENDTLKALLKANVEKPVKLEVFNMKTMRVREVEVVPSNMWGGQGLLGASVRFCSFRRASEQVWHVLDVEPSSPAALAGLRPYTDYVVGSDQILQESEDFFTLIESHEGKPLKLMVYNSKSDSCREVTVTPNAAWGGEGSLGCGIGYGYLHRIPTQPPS

MAGI2_5, Q86UL8 = conditions: plain residues with an end cap or a label only (N-terminal biotin on a linker: ttds)
MAGI2_5, Q86UL8, sequence (Q86UL8 915-1017): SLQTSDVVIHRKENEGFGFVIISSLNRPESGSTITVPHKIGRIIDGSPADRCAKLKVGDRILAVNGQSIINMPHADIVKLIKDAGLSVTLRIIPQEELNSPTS

RHPN1, Q8TCX5 = target: T7, RHPN1, Q8TCX5; conditions: plain residues with an end cap or a label only (N-terminal biotin on a linker: ttds)
T7 sequence (Q8TCX5 508-602, limits assumed, looked up): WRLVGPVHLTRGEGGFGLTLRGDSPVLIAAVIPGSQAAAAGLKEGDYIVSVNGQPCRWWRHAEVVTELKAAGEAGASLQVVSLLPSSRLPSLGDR

DFNB31_2, Q9P202 = target: T8, DFNB31_2, Q9P202; conditions: plain residues with an end cap or a label only (N-terminal biotin on a linker: ttds)
T8 sequence (Q9P202 274-371, limits assumed, looked up): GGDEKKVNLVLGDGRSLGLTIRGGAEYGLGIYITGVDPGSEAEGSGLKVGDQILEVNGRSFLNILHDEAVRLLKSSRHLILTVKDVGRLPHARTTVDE

DLG2_3, Q15700 = conditions: plain residues with an end cap or a label only (N-terminal biotin on a linker: ttds)
SIPA1L2, Q9P2F8 = target: T9, SIPA1L2, Q9P2F8; conditions: plain residues with an end cap or a label only (N-terminal biotin on a linker: ttds)
T9 sequence (Q9P2F8 945-1036, limits assumed, looked up): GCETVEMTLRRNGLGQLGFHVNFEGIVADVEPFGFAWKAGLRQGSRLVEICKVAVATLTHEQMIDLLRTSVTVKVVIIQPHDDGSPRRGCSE

LIMK2, P53671 = conditions: plain residues with an end cap or a label only (N-terminal biotin on a linker: ttds)
LIMK2, P53671, sequence (P53671 143-248): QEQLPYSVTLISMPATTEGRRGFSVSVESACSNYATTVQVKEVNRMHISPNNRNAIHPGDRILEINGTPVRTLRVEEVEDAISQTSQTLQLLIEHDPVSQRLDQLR

GRIP2_7, Q9C0E4 = conditions: plain residues with an end cap or a label only (N-terminal biotin on a linker: ttds)
GRIP2_7, Q9C0E4, sequence (Q9C0E4 934-1023): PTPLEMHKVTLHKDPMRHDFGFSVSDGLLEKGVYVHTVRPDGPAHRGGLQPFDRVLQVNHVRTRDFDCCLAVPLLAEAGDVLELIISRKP

AHNAK1, Q09666 = conditions: plain residues with an end cap or a label only (N-terminal biotin on a linker: ttds)
AHNAK1, Q09666, sequence (Q09666 4-100): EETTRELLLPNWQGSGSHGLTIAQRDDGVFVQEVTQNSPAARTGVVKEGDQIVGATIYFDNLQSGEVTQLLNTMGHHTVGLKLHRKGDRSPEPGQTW

APBA2_2, Q99767 = target: T10, APBA2_2, Q99767; conditions: plain residues with an end cap or a label only (N-terminal biotin on a linker: ttds)
T10 sequence (Q99767 654-744, limits assumed, looked up): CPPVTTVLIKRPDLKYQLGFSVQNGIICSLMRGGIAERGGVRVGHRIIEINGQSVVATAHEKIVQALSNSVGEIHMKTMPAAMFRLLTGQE

MAST1, Q9Y2H9 = conditions: plain residues with an end cap or a label only (N-terminal biotin on a linker: ttds)
MAST1, Q9Y2H9, sequence (Q9Y2H9 962-1065): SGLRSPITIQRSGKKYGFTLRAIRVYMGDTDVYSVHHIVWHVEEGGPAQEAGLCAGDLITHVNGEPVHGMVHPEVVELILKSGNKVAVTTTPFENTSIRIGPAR

[1] = plain residues with an end cap or a label only (N-terminal biotin on a linker: ado-ado)
[2] = plain residues with an end cap or a label only (N-terminal biotin on a linker: ttds)

GRID2IP_2, A4D2P6, sequence (A4D2P6 272-370): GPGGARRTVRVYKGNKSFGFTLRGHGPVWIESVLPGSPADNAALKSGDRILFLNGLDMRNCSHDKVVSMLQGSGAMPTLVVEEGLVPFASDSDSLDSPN
DLG1_3, Q12959, sequence (Q12959 457-571): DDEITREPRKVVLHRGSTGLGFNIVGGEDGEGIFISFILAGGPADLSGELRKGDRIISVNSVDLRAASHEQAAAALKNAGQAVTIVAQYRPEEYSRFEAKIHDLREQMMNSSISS

Binder: KSRVAFFEEL [NF2, P35240]
- pKd (DLG1_3, Q12959; [1]): 3.82
- pKd (GRID2IP_2, A4D2P6; [1]): 3.59
- pKd (DFNB31_1, Q9P202; [1]): 3.64
- pKd (GRIP2_6, Q9C0E4; [1]): 3.77
- pKd (IL16_1, Q14005; [1]): 3.5
- pKd (APBA2_1, Q99767; [1]): 3.54
- pKd (GORASP2, Q9H8Y8; [1]): 3.87
- pKd (FRMPD3, Q5JV73; [1]): 3.5
- pKd (MAGI2_3, Q86UL8; [1]): 3.55
- pKd (NHERF2_2, Q15599; [1]): 3.89
- pKd (LNX1_1, Q8TBB1; [1]): 3.73
- pKd (NOS1, P29475; [1]): 3.58
- pKd (DVL3, Q92997; [1]): 3.49

Binder: SVWLRKETRV [CYSLTR2, Q9NS75]
- pKd (APBA1_1, Q02410): below the threshold
- pKd (HTRA3, P83110): below the threshold
- pKd (MPDZ_5, O75970): 3.36
- pKd (DLG1_3, Q12959; [2]): 5.57
- pKd (GORASP1, Q9BQQ3): 3.7
- pKd (MAGI2_5, Q86UL8): 3.93
- pKd (GRID2IP_2, A4D2P6; [2]): 3.45
- pKd (DFNB31_1, Q9P202; [2]): 4.03
- pKd (GRIP2_6, Q9C0E4; [2]): below the threshold
- pKd (RHPN1, Q8TCX5): 4.08
- pKd (IL16_1, Q14005; [2]): 3.92
- pKd (DFNB31_2, Q9P202): 3.73
- pKd (APBA2_1, Q99767; [2]): below the threshold
- pKd (GORASP2, Q9H8Y8; [2]): 4.01
- pKd (FRMPD3, Q5JV73; [2]): below the threshold
- pKd (MAGI2_3, Q86UL8; [2]): 4.73
- pKd (DLG2_3, Q15700): 5.4
- pKd (SIPA1L2, Q9P2F8): below the threshold
- pKd (NHERF2_2, Q15599; [2]): 3.78
- pKd (LIMK2, P53671): below the threshold
- pKd (GRIP2_7, Q9C0E4): below the threshold
- pKd (AHNAK1, Q09666): below the threshold
- pKd (LNX1_1, Q8TBB1; [2]): 3.59
- pKd (NOS1, P29475; [2]): 3.85
- pKd (APBA2_2, Q99767): below the threshold
- pKd (DVL3, Q92997; [2]): below the threshold
- pKd (MAST1, Q9Y2H9): 5.29

Binder: SRPQRTQTQV [HPV67-E6, A4U7F2]
- pKd (APBA1_1, Q02410): below the threshold
- pKd (HTRA3, P83110): below the threshold
- pKd (MPDZ_5, O75970): below the threshold
- pKd (DLG1_3, Q12959; [2]): 4.13
- pKd (GORASP1, Q9BQQ3): below the threshold
- pKd (MAGI2_5, Q86UL8): 3.94
- pKd (GRID2IP_2, A4D2P6; [2]): below the threshold
- pKd (DFNB31_1, Q9P202; [2]): below the threshold
- pKd (GRIP2_6, Q9C0E4; [2]): below the threshold
- pKd (RHPN1, Q8TCX5): 3.84
- pKd (IL16_1, Q14005; [2]): below the threshold
- pKd (DFNB31_2, Q9P202): below the threshold
- pKd (APBA2_1, Q99767; [2]): below the threshold
- pKd (GORASP2, Q9H8Y8; [2]): below the threshold
- pKd (FRMPD3, Q5JV73; [2]): below the threshold
- pKd (MAGI2_3, Q86UL8; [2]): below the threshold
- pKd (DLG2_3, Q15700): 4.52
- pKd (SIPA1L2, Q9P2F8): below the threshold
- pKd (NHERF2_2, Q15599; [2]): below the threshold
- pKd (LIMK2, P53671): below the threshold
- pKd (GRIP2_7, Q9C0E4): below the threshold
- pKd (AHNAK1, Q09666): below the threshold
- pKd (LNX1_1, Q8TBB1; [2]): below the threshold
- pKd (NOS1, P29475; [2]): 3.81
- pKd (APBA2_2, Q99767): below the threshold
- pKd (DVL3, Q92997; [2]): below the threshold
- pKd (MAST1, Q9Y2H9): 4.47

Binder: ERKLSSESQV [LRP4, O75096]
- pKd (APBA1_1, Q02410): below the threshold
- pKd (HTRA3, P83110): below the threshold
- pKd (MPDZ_5, O75970): below the threshold
- pKd (DLG1_3, Q12959; [2]): below the threshold
- pKd (GORASP1, Q9BQQ3): below the threshold
- pKd (MAGI2_5, Q86UL8): 4.08
- pKd (GRID2IP_2, A4D2P6; [2]): below the threshold
- pKd (DFNB31_1, Q9P202; [2]): below the threshold
- pKd (GRIP2_6, Q9C0E4; [2]): below the threshold
- pKd (RHPN1, Q8TCX5): 3.96
- pKd (IL16_1, Q14005; [2]): 3.59
- pKd (DFNB31_2, Q9P202): below the threshold
- pKd (APBA2_1, Q99767; [2]): below the threshold
- pKd (GORASP2, Q9H8Y8; [2]): 4.39
- pKd (FRMPD3, Q5JV73; [2]): below the threshold
- pKd (MAGI2_3, Q86UL8; [2]): below the threshold
- pKd (DLG2_3, Q15700): 4.11
- pKd (SIPA1L2, Q9P2F8): below the threshold
- pKd (NHERF2_2, Q15599; [2]): below the threshold
- pKd (LIMK2, P53671): below the threshold
- pKd (GRIP2_7, Q9C0E4): below the threshold
- pKd (AHNAK1, Q09666): below the threshold
- pKd (LNX1_1, Q8TBB1; [2]): below the threshold
- pKd (NOS1, P29475; [2]): 3.81
- pKd (APBA2_2, Q99767): below the threshold
- pKd (DVL3, Q92997; [2]): below the threshold
- pKd (MAST1, Q9Y2H9): below the threshold
